# Measurements: US20120258099
# Changes are numbered by the printed parent chain.
# Key:
# GST-TRIPE32G = system: T1, GST-TRIPE32G
# T1 sequence: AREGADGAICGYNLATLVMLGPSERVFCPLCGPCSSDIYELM
# GST-TRIPT16M/L17S = system: T2, GST-TRIPT16M/L17S
# T2 sequence: T1 sequence with T16M, L17S, G32E
# GST-TRIPα = system: T3, GST-TRIPα
# T3 sequence: T1 sequence with G32E
# Chain of GST [GST: P08515] (P08515 whole entry): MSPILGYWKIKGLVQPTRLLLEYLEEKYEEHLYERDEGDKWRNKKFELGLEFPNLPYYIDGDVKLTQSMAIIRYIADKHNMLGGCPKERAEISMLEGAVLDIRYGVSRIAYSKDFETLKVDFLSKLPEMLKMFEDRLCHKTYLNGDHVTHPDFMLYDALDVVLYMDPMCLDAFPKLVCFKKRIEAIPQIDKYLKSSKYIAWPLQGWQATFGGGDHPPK
substance,measurement,setting,value
MBP-Tgat (aa 1-255),"Tgat GEF activity on RhoA, kinetics fluorescence assay (kobs)",GST [GST: P08515],GST alone (not shown) ... had no effect
same,"Tgat GEF activity on RhoA, kinetics fluorescence assay (kobs)",GST-TRIPE32G,inhibited Tgat GEF activity in a dose-dependent manner
same,"Tgat GEF activity on RhoA, kinetics fluorescence assay (kobs)",GST-TRIPT16M/L17S,inhibited Tgat GEF activity in a dose-dependent manner
same,"Tgat GEF activity on RhoA, kinetics fluorescence assay (kobs)",GST-TRIPα,"GST-TRIPα, at the same concentrations, had no effect"
